We go through 29 sequences from the supplement of paper PMC10567573.

± gives the standard deviation.

A short description of the data set: protein stability index of a GFP-peptide fusion (GPS, HEK-293T) (PSI 1-6); higher = more stable. Conditions: c terminus: a fixed tail appended.
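Note: 24-mer peptide tiles fused after GFP, lentivirally expressed, FACS-sorted into six equal bins by GFP/DsRed ratio, decoded by Illumina sequencing, PSI is the read-weighted mean bin number.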

On to LSLLGKLTISAAFNIVYIYTSELY [SLC22A15], for which the protein stability index reads like this: (treatment: DMSO) 3.31 ± 0.21; (treatment: MLN4924 1 uM, 8 h) 3.25 ± 0.28.
For FKPVVAAQKISKGADPKSVVCAFF [ZC3H15], the protein stability index reads like this: (treatment: DMSO) 2.32 ± 1; (treatment: MLN4924 1 uM, 8 h) 2.81 ± 1.5.
The like results for KGTPASKLILGMPTYGRSFTLASS [CHIT1] were, in that order, 2.47 ± 0.28 and 2.54 ± 0.21.
On to GYSMNFNMSSSRGPLPVKRGPPPR [RBMX], for which the protein stability index is, setting by setting: (treatment: DMSO) 3.16 ± 0.23; (treatment: MLN4924 1 uM, 8 h) 3.82 ± 0.72.
The like results for SVINNGHNQKVHMHMVDLMSSIIC [PDS5B] were, in that order, 2.02 ± 0.27 and 2.53 ± 0.3.
The like results for SLNGPLSTSRHVMAPVMAHVDPEE [ADAMTS4] were, in that order, 4.5 ± 0.25 and 4.49 ± 0.25.
The like results for MVQQIQENSVEFEACLVAQCDALI [TRIM9] were, in that order, 2.9 ± 0.35 and 2.97 ± 0.36.
For the sequence MELSWGQSPGQPVQGGSEAWGPGT [TEX19], the protein stability index reads like this: (treatment: DMSO) 3.86 ± 0.53; (treatment: MLN4924 1 uM, 8 h) 4.06 ± 0.36.
For AAPPPLKDDPEGDRDGCVITKVLL [ZBED3] the same measures were 3.62 ± 0.27 and 3.62 ± 0.27.
Take QYYRTIEELQNKILTATVDNANIL [KRT17]: the protein stability index was 2.22 ± 0.2 (treatment: DMSO) and 2.23 ± 0.2 (treatment: MLN4924 1 uM, 8 h).
The like results for LLHMPQPVNPELTAGPITGLVYRL [TRIM43] were, in that order, 2.26 ± 0.3 and 2.67 ± 0.36.
The like results for IEDEDQILENSSQKENVFKCDSLK [FAN1] were, in that order, 5.07 ± 0.1 and 5.01 ± 0.35.
Regarding PAYKVSGDKNEEQVLNAIEAYTEH [ZER1], the protein stability index was determined as 5.06 ± 0.17 (treatment: DMSO) and 5.02 ± 0.17 (treatment: MLN4924 1 uM, 8 h).
The sequence SEPIRRAGKSGTSTPTTPGSTAIT [MAP2] returned a protein stability index (treatment: DMSO) of 4.66 ± 0.25 and a protein stability index (treatment: MLN4924 1 uM, 8 h) of 4.65 ± 0.2.
For FVYENAKEGARNIRTSERVTLIVD [BTBD10] the same measures were 2.55 ± 0.6 and 3.06 ± 0.5.
Consider VNSDYETYMSADDLRINLWNFEIT [PPP2R2B], for which the protein stability index by setting is: (treatment: DMSO) 2.19 ± 0.23; (treatment: MLN4924 1 uM, 8 h) 2.4 ± 0.23.
For LVVLVVAVVASSVNSYYSSPAQQV [TOR1AIP2] the same measures were 3.22 ± 0.11 and 3.21 ± 0.23.
The like results for YLRPQSNYSSSQDALISVSYTIIT [OR10K2] were, in that order, 2.73 ± 0.7 and 2.68 ± 0.99.
LSILRHQNLLKELQDLALQGAKER [CHGA]: the protein stability index was found to be 3.02 ± 0.087 (treatment: DMSO) and 3.08 ± 0.27 (treatment: MLN4924 1 uM, 8 h).
For ITESYQTLHPISSEELLSLKYEND [ETS1] the same measures were 4.81 ± 0.095 and 4.85 ± 0.22.
For GAAQEALSIQLQPKETQPFPKSEQ [ZNF232] the same measures were 5.17 ± 0.25 and 5.22 ± 0.23.
For VRRLQALRLEREEYVLLKALALAN [ESRRA] the same measures were 2.18 ± 0.54 and 2.12 ± 0.31.
On to SCGGDGGIVVWNMDVERQETPEWL [WDFY2], for which the protein stability index runs as follows: (treatment: DMSO) 3.82 ± 0.34; (treatment: MLN4924 1 uM, 8 h) 3.79 ± 0.18.
The like results for NLLQYVRMPLLTPRYITDVIDAEP [KLHL12] were, in that order, 2.29 ± 0.45 and 2.33 ± 0.26.
As to PILRLLPQGISPVSQHWATWALYN [ZER1], the protein stability index runs as follows: (treatment: DMSO) 2.78 ± 0.37; (treatment: MLN4924 1 uM, 8 h) 2.95 ± 0.34.
For RWDLSPEQIKTRTEELIVQTKQVY [NLN] the same measures were 3.44 ± 0.32 and 3.8 ± 0.088.
For SCAGGRLFQQSCPTGLVFSNSCKC [CHIT1] the same measures were 2.98 ± 0.17 and 3.05 ± 0.24.
For AFCNGQKLQVSQQEDITKSLLVTE [IMPA1] the same measures were 3.69 ± 0.12 and 3.73 ± 0.27.
For the sequence QRSVSDVASGSTPAPALCCAPYDS [IRX6], the protein stability index reads like this: (treatment: DMSO) 4.8 ± 0.34; (treatment: MLN4924 1 uM, 8 h) 4.94 ± 0.085.
